In PMC12529927, “Functional microRNA targeting without seed pairing”:
Substitutions are numbered along the chain they refer to.

Tests used:
[1] = molecular target: T1, AGO2 (loaded with guide RNA) (Homo sapiens, UniProt Q9UKV8 1-859); test: filter binding; no boost over m9_22; 18 mM HEPES pH 7.4, 100 mM K-acetate, 1 mM Mg-acetate, 0.01% IGEPAL, 0.01 mg/mL yeast tRNA, 5 mM DTT, BSA, glycerol, 37 C, 4 h, 1-5 pM target; kinetics with 10; settings: protein: recombinant, tags: 3xFLAG-SUMOEu1 (removed by SENPEuB cleavage), label: 32P target, offset +3
[2] = molecular target: T1, AGO2 (loaded with guide RNA); test: filter binding; modest boost over m9_22; 18 mM HEPES pH 7.4, 100 mM K-acetate, 1 mM Mg-acetate, 0.01% IGEPAL, 0.01 mg/mL yeast tRNA, 5 mM DTT, BSA, glycerol, 37 C, 4 h, 1-5 pM target; kinetics with 10; settings: protein: recombinant, tags: 3xFLAG-SUMOEu1 (removed by SENPEuB cleavage), label: 32P target, offset +3
[3] = molecular target: T1, AGO2 (loaded with guide RNA); test: filter binding; modest boost over m11_23; 18 mM HEPES pH 7.4, 100 mM K-acetate, 1 mM Mg-acetate, 0.01% IGEPAL, 0.01 mg/mL yeast tRNA, 5 mM DTT, BSA, glycerol, 37 C, 4 h, 1-5 pM target; kinetics with 10; settings: protein: recombinant; tags: 3xFLAG-SUMOEu1 (removed by SENPEuB cleavage); label: 32P target; g11-23 and g2-6 paired, offset +2
[4] = molecular target: T1, AGO2 (loaded with guide RNA); test: filter binding; length-matched; slightly weaker than m2_6; 18 mM HEPES pH 7.4, 100 mM K-acetate, 1 mM Mg-acetate, 0.01% IGEPAL, 0.01 mg/mL yeast tRNA, 5 mM DTT, BSA, glycerol, 37 C, 4 h, 1-5 pM target; kinetics with 10; settings: protein: recombinant; tags: 3xFLAG-SUMOEu1 (removed by SENPEuB cleavage); label: 32P target; g11-23 and g2-5 paired, offset +2

T1 sequence (Q9UKV8 whole entry): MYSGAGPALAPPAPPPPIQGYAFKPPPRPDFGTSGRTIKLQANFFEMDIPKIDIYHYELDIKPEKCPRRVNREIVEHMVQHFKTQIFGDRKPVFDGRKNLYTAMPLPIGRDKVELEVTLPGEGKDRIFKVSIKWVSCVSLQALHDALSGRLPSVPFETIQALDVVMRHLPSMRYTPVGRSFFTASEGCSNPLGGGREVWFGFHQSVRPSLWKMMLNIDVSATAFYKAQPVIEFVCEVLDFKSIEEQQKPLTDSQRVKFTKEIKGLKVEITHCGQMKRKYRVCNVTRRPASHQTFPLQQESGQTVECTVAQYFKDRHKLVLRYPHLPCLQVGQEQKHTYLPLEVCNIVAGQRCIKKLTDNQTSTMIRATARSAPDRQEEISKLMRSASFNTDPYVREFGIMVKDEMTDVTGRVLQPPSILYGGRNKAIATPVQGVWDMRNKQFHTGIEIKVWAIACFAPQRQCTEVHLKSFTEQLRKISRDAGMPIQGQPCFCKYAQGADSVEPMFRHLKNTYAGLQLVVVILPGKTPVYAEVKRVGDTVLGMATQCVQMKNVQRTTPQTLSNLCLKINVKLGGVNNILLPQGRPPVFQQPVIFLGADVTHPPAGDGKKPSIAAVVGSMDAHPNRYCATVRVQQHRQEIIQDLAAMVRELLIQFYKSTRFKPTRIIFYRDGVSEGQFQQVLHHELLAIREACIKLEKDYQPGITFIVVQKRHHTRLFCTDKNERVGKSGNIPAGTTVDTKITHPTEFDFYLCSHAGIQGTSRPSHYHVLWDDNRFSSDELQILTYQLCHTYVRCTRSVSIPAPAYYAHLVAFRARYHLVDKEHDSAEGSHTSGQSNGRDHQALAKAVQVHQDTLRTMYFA

B1: miR-124 mut / m9_22|+3|m2 (mixed)
RNA 1: UCUGGCUCGCGGUGAAUGCCAA
RNA 2: UUUUUUGGCAUUCACCGCUUUUUUUUUGUUUU
modifications: 5'-phosphate guide
Does B1 bind ([1]; g9-22 and g2 paired)?
Result: binds

B2: miR-124 mut / m9_22|+3|m2_4 (mixed)
RNA 1: UCUGGCUCGCGGUGAAUGCCAA
RNA 2: B1 RNA 2 with U26C, U27A
modifications: 5'-phosphate guide
Does B2 bind ([2]; g9-22 and g2-4 paired)?
Result: binds

B3: miR-124 mut / m9_22|+3|m2_3 (mixed)
RNA 1: UCUGGCUCGCGGUGAAUGCCAA
RNA 2: B1 RNA 2 with U27A
modifications: 5'-phosphate guide
Does B3 bind ([1]; g9-22 and g2-3 paired)?
Result: binds

B4: miR-124 mut / m9_22|+3|m2_5 (mixed)
RNA 1: UCUGGCUCGCGGUGAAUGCCAA
RNA 2: B1 RNA 2 with U25C, U26C, U27A
modifications: 5'-phosphate guide
Does B4 bind ([2]; g9-22 and g2-5 paired)?
Result: binds

B5: miR-155 mut / m11_23|+2|m2_6 (mixed)
RNA 1: UUCGUGCUAAUCGUGAUAGGGGU
RNA 2: UUUUACCCCUAUCACGACCUUUUCACGAUUUU
modifications: 5'-phosphate guide
Does B5 bind [3]?
Result: binds

B6: miR-155 mut / m11_23|+2|m2_5 (repeat) (mixed)
RNA 1: UUCGUGCUAAUCGUGAUAGGGGU
RNA 2: B5 RNA 2 with C24U
modifications: 5'-phosphate guide
Does B6 bind [4]?
Result: binds
